The values that follow come from PMC5715112.

For one experiment, the target named is HIV integrase fused to the VP16 activation domain (pEF-VP16, CHO cells). The experiment is described as follows: mammalian two-hybrid luciferase reporter assay in CHO cells. As to conditions: 48 h after transfection; Firefly luciferase normalised to Renilla; parent: est. 1.4; read off a plot. For orientation: In a reporter assay the amount or activity of a reporter protein is the signal.
For the substance “GAL4 DNA binding domain (DBD)-LEDGF IBD fusion (pM1, CHO cells) D366A”, the response was 0.02.
Turning to “GAL4 DNA binding domain (DBD)-LEDGF IBD fusion (pM1, CHO cells) F406A”, the response came to 0.04.
Take “GAL4 DNA binding domain (DBD)-LEDGF IBD fusion (pM1, CHO cells) I365A”: the response is 0.02.
Still for that read-out and setting: next, “GAL4 DNA binding domain (DBD)-LEDGF IBD fusion (pM1, CHO cells) K364A”: 0.08.
Consider “GAL4 DNA binding domain (DBD)-LEDGF IBD fusion (pM1, CHO cells) K402A”, for which the response was 0.6.
Same read-out and setting: to “GAL4 DNA binding domain (DBD)-LEDGF IBD fusion (pM1, CHO cells) K407A” belongs 3.3.
Still for that read-out and setting: to “GAL4 DNA binding domain (DBD)-LEDGF IBD fusion (pM1, CHO cells) L363A” belongs 0.25; to “GAL4 DNA binding domain (DBD)-LEDGF IBD fusion (pM1, CHO cells) L368A”, 0.01; to “GAL4 DNA binding domain (DBD)-LEDGF IBD fusion (pM1, CHO cells) R405A”, 1.3.
Regarding “GAL4 DNA binding domain (DBD)-LEDGF IBD fusion (pM1, CHO cells) V408A”, the response was found to be 0.4.

Another experiment has as its target GAL4 DNA binding domain (DBD)-LEDGF IBD fusion (pM1, CHO cells). The experiment is described as follows: two-hybrid; mammalian three-hybrid competition in CHO cells: GAL4 DBD-IBD bait, HIV IN-VP16 prey and a free competitor from pEF-BOS-cyto; Firefly/Renilla luciferase.
Conditions: not given
On to “free HIV IN (competitor, pEF-BOS-cyto, CHO cells) (enzyme)”, for which the percent inhibition of the luciferase signal of HIV IN-VP16 with Gal4-IBD came out at 90%.
